Test results as given in US20110250170A1 (PHILOGEN S P A, published 2011).

Biological target: T1, A1 domain of tenascin-C (TNC-A1) (UniProt P24821 1073-1163, limits assumed)
T1 construct: domain: A1; Coupled to Sepharose resin in the immunoreactivity test; also called extra-domain A1 of tenascin-C
T1 sequence (looked up): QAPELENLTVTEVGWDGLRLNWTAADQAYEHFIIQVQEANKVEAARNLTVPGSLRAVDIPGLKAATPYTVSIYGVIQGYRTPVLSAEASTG
Assay: real-time interaction analysis, BIAcore 3000

B1: F16 human monoclonal antibody (original clone 4A1-F16) (antibody, V domains shown)
VH: EVQLLESGGGLVQPGGSLRLSCAASGFTFSRYGASWVRQAPGKGLEWVSAISGSGGSTYYADSVKGRFTISRDNSKNTLYLQMNSLRAEDTAVYYCAKAHNAFDYWGQGTLVTVSR
VL: SSELTQDPAVSVALGQTVRITCQGDSLRSYYASWYQQKPGQAPVLVIYGKNNRPSGIPDRFSGSSSGNTASLTITGAQAEDEADYYCNSSVYTMPPVVFGGGTKLTVL
Q: With B1 as the binder, how does the koff read?
A: The koff was < 0.01 s⁻¹.
